Results from PMC6917767.

What was measured:
PARP1 = PARP1 (UniProt P09874); assay: BLI, nucleosome immobilised, PARP1 titrated; conditions: reference: H2A.X nucleosome; sites S139
[1] = molecular target: NUC155, nucleosome with a single double-helical turn linker DNA at one terminus (H2A) (human); assay: SPR; Biacore 3000, room temperature, 10 ul/min; nucleosome/NCP with biotinylated DNA (600-700 RU) immobilised on CM5 chips with neutravidin; 20 mM Tris pH 7.5, 150 mM NaCl; PARP1 1.15-18.5 nM or NPARP1 2.32-37 nM injected; kinetic titration, 1:1 fit
[2] = molecular target: NUC167, nucleosome with a single double-helical turn linker DNA at both termini (H2A) (human); assay: as above
[3] = molecular target: 145 bp nucleosome core particle (NCP) with H2A (human); assay: as above
[4] = molecular target: 145 bp nucleosome core particle assembled with H2A (NCP) (human) (UniProt P06899); assay: SPR; Biacore 3000, room temperature, 10 ul/min; nucleosome/NCP with biotinylated DNA (600-700 RU) immobilised on CM5 chips with neutravidin; PARP1 (1.15-18.5 nM) or NPARP1 (2.32-37 nM) injected consecutively (kinetic titration, 1:1 fit); 20 mM Tris pH 7.5, 150 mM NaCl
[5] = molecular target: nucleosome with a single double-helical turn linker DNA at both termini, assembled with H2A (NUC167) (human) (UniProt P06899); assay: as above
[6] = molecular target: nucleosome with a single double-helical turn linker DNA at one terminus, assembled with H2A (NUC155) (human) (UniProt P06899); assay: as above
[7] = molecular target: NUC167 with H2A.X in place of H2A (human) (UniProt P16104); assay: BLI; Octet RED96e, 25 C; biotinylated nucleosome captured on streptavidin biosensors; PARP1 0.195-3.125 nM in PBST pH 7.4; association 120 s, dissociation 15 min; 1:1 model
[8] = molecular target: NUC167 with γH2A.X [H2A.X (pS139)] in place of H2A (human) (UniProt P16104); assay: as above
[9] = molecular target: NUC167 with H2A.X-S139E (mutant mimic of γH2A.X) in place of H2A (human); assay: as above
[10] = molecular target: NUC167, nucleosome with a single double-helical turn linker DNA at both termini (H2A) (human); assay: as above
[11] = molecular target: NUC167 nucleosome assembled with H2A.X-S139E (mutant mimic of γH2A.X) in place of H2A (human) (UniProt P06899); assay: BLI; Octet RED96e, 25 °C; biotinylated nucleosome captured on streptavidin biosensors; PARP1 0.195-3.125 nM in PBST pH 7.4 (150 mM NaCl, 0.05% Tween-20); association 120 s, dissociation 15 min; 1:1 model
[12] = molecular target: nucleosome with a single double-helical turn linker DNA at both termini, assembled with H2A (NUC167) (human) (UniProt P06899); assay: as above
[13] = molecular target: NUC167 nucleosome assembled with γH2A.X [H2A.X (pS139)] in place of H2A (human) (UniProt P06899); assay: as above
[14] = molecular target: NUC167 nucleosome assembled with H2A.X in place of H2A (human) (UniProt P06899); assay: as above

Row | Substance | KD (PARP1) | Kd [1] | koff [1] | kon [1] | koff [2] | kon [2] | Kd [3] | koff [3] | kon [3] | Kd [4] | koff [4] | kon [4] | koff [5] | kon [5] | Kd [6] | koff [6] | kon [6] | also measured
1 | H2A.X (from UniProt P16104) H2A.X-S139E nucleosome | stronger; reference 73.2 ± 0.3 | – | – | – | – | – | – | – | – | – | – | – | – | – | – | – | – | –
2 | H2A.X (from UniProt P16104) γH2A.X (pS139) nucleosome | stronger; reference 73.2 ± 0.3 | – | – | – | – | – | – | – | – | – | – | – | – | – | – | – | – | –
3 | NPARP1 (N-terminal half of PARP1, amino acids 1-486) (from UniProt P09874 1-486) (domain or fragment) | – | 17.3 nM | 0.00107 s⁻¹ | 61900 M⁻¹ s⁻¹ | 0.0244 s⁻¹ | 3e+06 M⁻¹ s⁻¹ | 187 nM | 0.00424 s⁻¹ | 22600 M⁻¹ s⁻¹ | – | – | – | – | – | – | – | – | Kd [2]: 8.13 nM
4 | NPARP1 (N-terminal half of PARP1, amino acids 1-486, lacking the WGR and catalytic domains) (from UniProt P09874 1-486) (domain or fragment) | – | – | – | – | – | – | – | – | – | 187 nM | 0.00424 s⁻¹ | 22600 M⁻¹ s⁻¹ | 0.0244 s⁻¹ | 3e+06 M⁻¹ s⁻¹ | 17.3 nM | 0.00107 s⁻¹ | 61900 M⁻¹ s⁻¹ | Kd [5]: 8.13 nM
5 | PARP1 (poly(ADP-ribose) polymerase 1) (from UniProt P09874 1-1014) (enzyme) | – | 0.554 nM | 0.00107 s⁻¹ | 1.93e+06 M⁻¹ s⁻¹ | 0.000562 s⁻¹ | 2.28e+06 M⁻¹ s⁻¹ | 0.701 nM | 0.000743 s⁻¹ | 1.06e+06 M⁻¹ s⁻¹ | – | – | – | – | – | – | – | – | koff [7]: 0.000274 s⁻¹; kon [7]: 3.75e+06 M⁻¹ s⁻¹; koff [8]: 0.000116 s⁻¹; kon [8]: 2.43e+06 M⁻¹ s⁻¹; koff [9]: 0.000328 s⁻¹; kon [9]: 7.5e+06 M⁻¹ s⁻¹; koff [10]: 0.000158 s⁻¹; kon [10]: 825000 M⁻¹ s⁻¹
6 | poly(ADP-ribose) polymerase 1 (PARP1), full-length (from UniProt P09874 1-1014) (enzyme) | – | – | – | – | – | – | – | – | – | 0.701 nM | 0.000743 s⁻¹ | 1.06e+06 M⁻¹ s⁻¹ | 0.000562 s⁻¹ | 2.28e+06 M⁻¹ s⁻¹ | 0.554 nM | 0.00107 s⁻¹ | 1.93e+06 M⁻¹ s⁻¹ | koff [11]: 0.000328 s⁻¹; kon [11]: 7.5e+06 M⁻¹ s⁻¹; koff [12]: 0.000158 s⁻¹; kon [12]: 825000 M⁻¹ s⁻¹; koff [13]: 0.000116 s⁻¹; kon [13]: 2.43e+06 M⁻¹ s⁻¹; koff [14]: 0.000274 s⁻¹; kon [14]: 3.75e+06 M⁻¹ s⁻¹
